{"source": "paper PMC11722290", "about": "(bioRxiv, 2025)", "molecules": {"B1": {"name": "Lis1^AAA5 (Lis1 M172K, D192K, Y225A, C226D) (natural protein)", "chain": "VLSQRQRDELNRAIADYLRSNGYEEAYSVFKKEAELDVNEELDKKYAGLLEKKWTSVIRLQKKVMELESKLNEAKEEFTSGGPLGQKRDPKEWIPRPPEKYALSGHRSPVTRVIFHPVFSVMVSASEDATIKVWDYETGDFERTLKGHTDSVQDISFDHSGKLLASCSADKTIKLWDFQGFECIRTMHGHKHNVSSVAIMPNGDHIVSASRDKTIKMWEVQTGADVKTFTGHREWVRMVRPNQDGTLIASCSNDQTVRVWVVATKECKAELREHEHVVECISWAPESSYSSISEATGSETKKSGKPGPFLLSGSRDKTIKMWDVSTGMCLMTLVGHDNWVRGVLFHSGGKFILSCADDKTLRVWDYKNKRCMKTLNAHEHFVTSLDFHKTAPYVVTGSVDQTVKVWECR"}, "B2": {"name": "human Nde1 (N-terminal residues 1-190) (domain or fragment)", "chain": "MEDSGKTFSSEEEEANYWKDLAMTYKQRAENTQEELREFQEGSREYEAELETQLQQIETRNRDLLSENNRLRMELETIKEKFEVQHSEGYRQISALEDDLAQTKAIKDQLQKYIRELEQANDDLERAKRATIMSLEDFEQRLNQAIERNAFLESELDEKENLLESVQRLKDEARDLRQELAVQQKQEKPR"}, "B3": {"name": "Lis1^AAA6 (Lis1 N203K, D205K, Q222A) (natural protein)", "chain": "B1 chain with K171M, K191D, N202K, D204K, Q221A, A224Y, D225C"}, "B4": {"name": "Lis1^linker (Lis1 E300K, K303E, S304R, M329A) (natural protein)", "chain": "B1 chain with K171M, K191D, A224Y, D225C, E299K, K302E, S303R, M328A"}}, "key": {"[1]": {"target": "full-length human dynein (cytoplasmic dynein-1), wild type (human) (UniProt Q14204)", "test": "cryo-EM structure"}, "[2]": {"target": "full-length human dynein (cytoplasmic dynein-1), wild type (human) (UniProt Q14204)", "test": "mass photometry"}, "[3]": {"target": "the molecule itself", "test": "mass photometry"}, "[4]": {"target": "B3", "test": "mass photometry"}, "[5]": {"target": "B1", "test": "mass photometry"}, "[6]": {"target": "T1, human Lis1, wild type (human, UniProt P43034 2-410)", "T1 sequence": "B1 chain with K171M, K191D, A224Y, D225C", "test": "mass photometry"}, "[7]": {"target": "B4", "test": "mass photometry"}}, "note": "Where a chain is given by its changes, count along the chain named. In names and notes the source's numbering stands.", "data": [{"molecule": "human Lis1, wild type (from UniProt P43034 2-410) (natural protein)", "values": [{"measurement": "percent of autoinhibited dynein particles in Phi^L-Lis1", "setting": "[1]", "result": 57.3, "unit": "%"}, {"measurement": "stoichiometry N (Lis1 dimer per dynein)", "setting": "[1]", "result": 1}, {"measurement": "percent of 1:1 dynein:Lis1 complex", "setting": "[2]", "result": 37, "unit": "%"}, {"measurement": "percent of complex formation", "setting": "[2]", "result": 69, "unit": "%"}, {"measurement": "stoichiometry N (Lis1 dimer per dynein)", "setting": "[2]", "result": 1}, {"measurement": "stoichiometry N (Lis1 per dynein)", "setting": "[2]", "result": 1}]}, {"molecule": "B1", "values": [{"measurement": "stoichiometry N", "setting": "[3]", "result": 2}]}, {"molecule": "B2", "values": [{"measurement": "binding result", "setting": "[4]", "result": "binds"}, {"measurement": "binding result", "setting": "[5]", "result": "binds"}, {"measurement": "binding result", "setting": "[6]", "result": "binds"}, {"measurement": "binding result", "setting": "[7]", "result": "binds"}]}, {"molecule": "B3", "values": [{"measurement": "stoichiometry N", "setting": "[3]", "result": 2}]}, {"molecule": "B4", "values": [{"measurement": "stoichiometry N", "setting": "[3]", "result": 2}]}]}
